Values of other authors in publication PMC7101603.
pKd: −log10 of the molar value.

Target: Activin-A mature (Homo sapiens) (UniProt P08476)

## Activin βA pro-peptide pro-peptide (from UniProt P08476)
  pKd: 7.00
